Test results from PMC4324565.

Molecular target: biotinylated gp120 165-182 peptide (HIV-1 (AE.A244))
Assay: BLI

B1: CH59 unmutated ancestor (CH59-UA) Fab (Fab, V domains shown)
VH: EVQLVESGGGLVQPGRSLRLSCAASGFTFDDYAMHWVRQAPGKGLEWVSGISWNSGSIGYADSVKGRFTISRDNAKNSLYLQMNSLRAEDTALYYCAKDSPRGELPFDYWGQGTLVTVSS
VL: SYELTQPPSVSVSPGQTARITCSGDALPKKYAYWYQQKSGQAPVLVIYEDSKRPSGIPERFSGSSSGTMATLTISGAQVEDEADYYCYSTDSSGNHRVFGGGTKLTVL
Kd: 500 nM
